# Measurements taken from the DeepSol protein solubility set.
# Experiment: soluble on expression in E. coli; label from the status in PepcDB or PDB records
row,Sequence,soluble on expression in E. coli
1,MAHTKKRIFDGLYAQLEETDGNVVLFSAKGEPSVIFEITNPVQQLCTDAEQYMLFQDVLSNVVQTLGEGYALQKQDVLCKQSYHHEVPEDAEFLTKSYFRYFEGREFTEIRTYLILTQEAQRSQFVQYDPKKWLDFHSKVSKVSDILKEKNIKYRKLSKEEVNEYCHRFMAFQFRHGPFSMTNFKASDEYLKIGDRVVRSYPLVDIDEINLPSLVKPYTQMNINGYGIATDLFSFLTSVPHADCVVFNQVVQIPNQRKLLRKLQAKAKRHGSMPDPSNKIAKEDIEEVLDRLAVDSTQLVYCNFNILVSCLVDKVTPVTSYLETKLYECGIMPSRTAYNQLELFTDSFPGNGYAFNPDYDLFLTLSDVALCFFFKEHLKGSEDTPLTTYYTDRQGLPVCIDITGKEGKVKMTDNANFFCIGPSGSGKSFHMNSVVRQLLEQNTDVVMVDTGDSYEGICGYYKGTYISYSKEKPISMNPFKVTKEEYDLNFGEKKNFLKSLIFLIFKGNEFPSKIEDMLINQTIVEYYEAYFHPFTKFTEKEREGLRQKLLVASKMEEDYDKFSHSMEDIDAQIREAEMDKQAESRALMLPAEARRLKLLRQCRSLYALAQDEAASKGEKERALQIIENYKKELYNNSMLIKIDKQIDHIEEQKRRLKVRVLSFNSYYEFALERIPQIVAQEKIQFNIRDFAAILKQFYRGGELEMTLNSDLNVNLFDEQFIVFEIDKIKDDPVLFPIVVLIIMDVFLQKMRIKKGRKALIIEEAWL,not soluble
2,MAIETAILEKIKQYQTIIIHRHQRPDPDCIGSQLALRAILRASFPEKTVVAVGKHYPGFDWMGQADQEVSDDTYHQALVIVVDTANQPRVDDERWQTGAAVIKIDHHPNDDAFGDLQWVLPQASSTSEIIYDWFEANHADLTMPDDAARLLYAGIVGDTGRFMYPATSANTFAVAGKLLAYDFSMTAVNQAEDEISPEMARLSAYAYQNLEILPSGAAYLKLTDEIVESFGLAASDSTSAIVPLPGKITSVVAWAIFVESKDKTFRVRLRSKGPSINELAKRHGGGGHALASGAAAKDQAEIDQVIHELDQLVADTKGENELEHHHHHH,soluble
3,MAIGVQKKTSTPLDVGTEQEPTNLEKTIGTLRRCLQIAGTSNKPGSRSAKNSISEESNDLTMEESVPEASKWPHCQHMISQDEAPRNDELASPNIRIVAYKDESQINDIMRLITKDLSEPYSIYTYRYFLHNWPEYCFLAYDQTNNTYIGAVLCKLELDMYGRCKGYLAMLAVDESCRRLGIGTRLVRRALDAMQSKGCDEIVLETEVSNKNAQRLYSNLGFIRQKRLLKYYLNGGDAFRLKLIFTSRRVRSLNNQENYQPRCRVNEDDTPDEEEGTY,not soluble
4,MAIIIGADKAGQELKEVIKDYLKEGKYEVVDVSENEVRDFVDTTLAVVKEVNASDDNLGIVIDAYGVGSFMVATKIKGMVAAEVSDERSAYMTRGHNNARIITLGSEISAPGIAKNIIKGFVEGKYDGGRHQVRVDMLNKMC,soluble
5,MAIKNAFYAQSGGVTAVINASAAGLLETARAHSDKIGKVYAGRNGIIGALTEDLIDTSAESTEAIRALRHTPSGAFGSCRYKLKSLEDNRREYERLIEVFKAHDIGYFFYNGGGDSADTCLKVSQLAGTLGYPIQAIHVPKTVDNDLPITDCCPGFGSVAKYIAVSMLEASFDVASMAKTSTKVFILEVMGRHAGWIAAAGGLASNEDHEVPIIILFPEVTFDQEKFLAKTDHYVKEYGYCTVVVSEGVKGTDGKFLSDQGLRDAFGHAQLGGVAPVIANIVKNGLGLKYHWGVADYLQRAARHIASGTDVEQAYAMGKAAVEYAIAGHNSVMPTIERISSSPYAWKTGMVELSKVANVEKMMPADFISEDGFGITGKCREYLSPLIEGEDYPPYKNGLPDYVRLKNVAVTKKLAEFKILEHHHHHH,not soluble
6,MAIPAFHPGELNVYSAPGDVADVSRALRLTGRRVMLVPTMGALHEGHLALVRAAKRVPGSVVVVSIFVNPMQFGAGGDLDAYPRTPDDDLAQLRAEGVEIAFTPTTAAMYPDGLRTTVQPGPLAAELEGGPRPTHFAGVLTVVLKLLQIVRPDRVFFGEKDYQQLVLIRQLVADFNLDVAVVGVPTVREADGLAMSSRNRYLDPAQRAAAVALSAALTAAAHAATAGAQAALDAARAVLDAAPGVAVDYLELRDIGLGPMPLNGSGRLLVAARLGTTRLLDNIAIEIGTFAGTDRPDGYRA,soluble
7,MAISDGRTGNTRQAEALASTLVGSLYTTQVLKPRIPWRWTAPYCLPGAKHAFGTTFSHALRYPPFLAIGCGRQAALATRLLHKQGACVVQILDPRLPARHWDLLVVPEHDHIRGHNVLTLLGSLHPVNDVWLATGRAQFPELGDLPGQRVALLVGAPTPQAPWQPAQLEELCTALVKGLSCGGSVLATTSRRTPPELATQLRKHLATIPGLFWNNTDKGANPYPGILGWADAIIATADSVNLLSEACATRAPVTAAFANQTRGRIRCFIDALGARLCTVENLLAIDTLAQPLRETERIANEVRAWFGMV,not soluble
8,MAIVLLVLHVCTGLRGSPVSGRVRMAVDSGIYLAPCSNNDAQEHLKRTVINGVDRDDYGQYTNVGFGDSVSIWGVKGGNESHWQDIDAGDYLFFYTGDETYSQVAEVLATDQNEGLAEHLWPGFEDTWEFIIYLNEPIPVNIDSNEIADYAGYKQNYILGFQSLRGSAVDEINDEYGSIEGYINANRTDGNHIQTSGGSQDPDEGDDSVVDEVLDEADRDEEAYANIARQLEEVGQVVFYGPPGTGKTYNAQQFARWWLHNLQSEPRESQVRSVTFHPSYTYEDFIEGLTANATENSVSYDIKPGKFKAICEDARVAYQETGPNEEPPRYVLLIDEINRGNLAQIFGETITLLEEDKRGTLHVDLAHSGGSFTIPPNLYVIGTMNTADRSVALVDAALRRRFRFIDFPPDYGVARSRFGFDTEYDLTSAARGERSDLEQLQALSIQAVEQLNETIIELPDLGKGKQIGHSYLLVDPDDEQALVDAWRYEILPLLEEYFYGQLSRIRQELFNQNGDSLVDWEREQIKDFDPETLRESLQAIVNAGLEHHHHHH,not soluble
9,MAIVNATDQTFAAETKDGLTLVDFWAPWCGPCRMIAPVLEELDREMGDKVKIVKVNVDENQETASKFGVMSIPTLLVFKNGELVDKAIGYQPKEALVQLVGKHVS,soluble
10,MAKEGSVAPKERINVTFKPATGGNQEEIELPLKLLAIGDYTHRRDERKVEDRKPISIDKTTFDEVLAKQELELTLSVPNRLQDEEGVAEELPVKLRVNSMKDFNPASLVEQVPELKKLMELRDALVALKGPLGNAPAFRKAIEGVLADDESRGRVLGELGLKAPAPDA,not soluble
11,MAKKKKKKSFNVTRPTDPPVYPVTVPILGHIIQFGKSPLGFMQECKRQLKSGIFTINIVGKRVTIVGDPHEHSRFFLPRNEVLSPREVYSFMVPVFGEGVAYAAPYPRMREQLNFLAEELTIAKFQNFVPAIQHEVRKFMAANWDKDEGEINLLEDCSTMIINTACQCLFGEDLRKRLDARRFAQLLAKMESSLIPAAVFLPILLKLPLPQSARCHEARTELQKILSEIIIARKAAAVNKDSSTSDLLSGLLSAVYRDGTPMSLHEVCGMIVAAMFAGQHTSSITTTWSMLHLMHPANVKHLEALRKEIEEFPAQLNYNNVMDEMPFAERCARESIRRDPPLLMLMRKVMADVKVGSYVVPKGDIIACSPLLSHHDEEAFPEPRRWDPERDEKVEGAFIGFGAGVHKCIGQKFGLLQVKTILATAFRSYDFQLLRDEVPDPDYHTMVVGPTASQCRVKYIRRKAAAAHHHHHHHH,soluble
12,MAKKTSSKGKLPPGPTPLPIIGNMLQIDVKDICKSFTNFSKVYGPVFTVYFGMNPIVVFHGYEAVKEALIDNGEEFSGRGNSPISQRITKGLGIISSNGKRWKEIRRFSLTTLRNFGMGKRSIEDRVQEEAHCLVEELRKTKASPCDPTFILGCAPCNVICSVVFQKRFDYKDQNFLTLMKRFNENFRILNSPWIQVCNNFPLLIDCFPGTHNKVLKNVALTRSYIREKVKEHQASLDVNNPRDFIDCFLIKMEQEKDNQKSEFNIENLVGTVADLFVAGTETTSTTLRYGLLLLLKHPEVTAKVQEEIDHVIGRHRSPCMQDRSHMPYTDAVVHEIQRYSDLVPTGVPHAVTTDTKFRNYLIPKGTTIMALLTSVLHDDKEFPNPNIFDPGHFLDKNGNFKKSDYFMPFSAGKRICAGEGLARMELFLFLTTILQNFNLKSVDDLKNLNTTAVTKGIVSLPPSYQICFIPVHHHH,soluble
13,MAKKVAVLAVNPVNGCGLFQYLEAFFENGISYKVFAVSDTKEIKTNSGMVLIVDDVIANLKGHEDEFDALVFSCGDAVPVFQQYANQPYNVDLMEVIKTFGEKGKMMIGHCAGAMMFDFTGITKGKKVAVHPLAKPAIQNGIATDEKSEIDGNFFTAQDENTIWTMLPKVIEALKLEHHHHHH,soluble
14,MAKNIPFKLILEKAKDYQADMTRFLRDMVAIPSESCDEKRVVHRIKEEMEKVGFDKVEIDPMGNVLGYIGHGPRLVAMDAHIDTVGIGNIKNWDFDPYEGMETDELIGGRGTSDQEGGMASMVYAGKIIKDLGLEDEYTLLVTGTVQEEDCDGLCWQYIIEQSGIRPEFVVSTEPTDCQVYRGQRGRMEIRIDVQGVSCHGSAPERGDNAIFKMGPILGELQELSQRLGYDEFLGKGTLTVSEIFFTSPSRCAVADSCAVSIDRRLTWGETWEGALDEIRALPAVQKANAVVSMYNYDRPSWTGLVYPTECYFPTWKVEEDHFTVKALVNAYEGLFGKAPVVDKWTFSTNGVSIMGRHGIPVIGFGPGKEPEAHAPNEKTWKSHLVTCAAMYAAIPLSWLATE,soluble
15,MAKNTSCGVQLRIRGKVQGVGFRPFVWQLAQQLNLHGDVCNDGDGVEVRLREDPEVFLVQLYQHCPPLARIDSVEREPFIWSQLPTEFTIR,soluble
16,MAKQTIIVMSDSHGDSLIVEEVRDRYVGKVDAVFHNGDSELRPDSPLWEGIRVVKGNMDFYAGYPERLVTELGSTKIIQTHGHLFDINFNFQKLDYWAQEEEAAICLYGHLHVPSAWLEGKILFLNPGSISQPRGTIRECLYARVEIDDSYFKVDFLTRDHEVYPGLSKEFSR,soluble
17,MAKRVIIAGGNIAGTIVANRLVQKLEHEVNKGDVEIVALNKSDEHIYLPGQLLVGFGLETPGELVRKESELLDPRIKFLHGQKGTISKIDVANHSVQTADGVSHSYDYLVITTGVDYTWDEIPGYRSAAHTVYEYDDAIKMREALEKFDGGTIVVNTAKLPHRCPVAPLEVTLILDDYLRKRGIRDKTKIIYTYPVQGVFGRPITNKFMLRLFEQRGIEVHSPFTVTSVDPNNKVIESQEGEKLKFDMLIGIPPNMGAKVIEDSGIGDRRRWVPTDKFTLRMKDHSNVYVMGDATDLPVSKAGSTADFESYTVAHNIANDIKGNLGVKHYGGDVLCYIATGTDQATYIRFSYTMNESPPPPSYVHWWGKIMYNKMYWTVTAKAVVLEHHHHHH,not soluble
18,MAKSNSNNSHNEADTLSSLLSSVGSSYDGESDSTFVSTGTTPSSSRRSRLDSFLSTTSSSKSRPRIKSKLPRSSSSGFSGTGSERSISSKRSKIGNTSGNRNKISQSARRRLLQAEIESRRNRSNKSPGSSRKSILKKSPMKKRRSLSRKSLPKKEHIPPVQKFAIIKNPAARNQVRGFVAEYAQDPEFEAFELLVDGIPFVALSLMNAHPDLRGRFKPVPPPTPMKKHTPGINSPRKRPLRRESISSVNSKSVRFTDEGSSFSKRARKSSSGDVDSSIRELGETVSDAMIDTGRQYNDLWKDRAHSVEK,not soluble
19,MAKVSLEKDRIKFLLVEGVHQSAVDNLRAAGYSNIEYHKGALDAESLKASIRDAHFIGIRSRTHLSEDVFAAAEKLVAVGCFCIGTNQVDLKAATKRGVPVFNAPFSNTRSVAEMVLGELLLMFRGIPSANAKAHRGEWNKLAVGSFEARGKKLGIIGYGHIGTQLGILAESIGMKVFFYDIENKLSLGNAQQVRQLSDLLNMSDVVSLHVPENHTTKNMIGAEQLAQMKPGALLINASRGTVVDIPALCDALSSNHLSGAAIDVFPEEPATNKDPFNSPLCEFDNVLLTPHIGGSTQEAQENIGDEVAGKLAKYSDNGSTLSAVNFPEVSLPAHGDNTRRLLHIHENRPGILTSINTIFAEQNVNIAAQYLQTSADIGYVVIDVETDDADNAEKALQAMKAIPGTIRARLLY,not soluble
